Assay [1] deals with T1, mouse coagulation factor X (mouse).
T1 construct: also called mouse FX; FX; source: bought: Haematologic Technologies, Inc
In words: SPR; Biacore T200; about 1,200 reference units of Ad5.0, Ad5:H48 or Ad48 particles immobilised on a CM5 chip; FX as analyte at four concentrations (max 42 nM for Ad5.0 and Ad5:H48, 212 nM for Ad48); 10 mM HEPES, 150 mM NaCl, 1 mM CaCl2, 0.5 mM MgCl2, 0.1% BSA, 0.05% polysorbate 20, pH 7.4; 50 uL/min; global fit to a 1:1 kinetic model. Conditions: both partners purified. (Surface plasmon resonance follows binding to a sensor surface in real time, without labels.)

Assay [2] addresses T2, human coagulation factor X (human).
T2 construct: Probably plasma zymogen with Gla residues in the light chain (surmised); also called human FX; FX; source: bought: Haematologic Technologies, Inc
The assay is described as above. Conditions: both partners purified.

Experimental findings from paper PMC5798830, “Hexons from adenovirus serotypes 5 and 48 differentially protect adenovirus vectors from neutralization by mouse and human serum” (PLoS ONE, 2018) are described below.

In general, Kd refers to the constant that tells how readily two partners part at equilibrium. A lower Kd goes with a tighter complex.

B1: Ad5.0 vector (adenovirus serotype 5 vector with a wild-type Ad5 capsid) (complex)
chain: ATPSMMPQWSYMHISGQDASEYLSPGLVQFARATETYFSLNNKFRNPTVAPTHDVTTDRSQRLTLRFIPVDREDTAYSYKARFTLAVGDNRVLDMASTYFDIRGVLDRGPTFKPYSGTAYNALAPKGAPNPCEWDEAATALEINLEEEDDDNEDEVDEQAEQQKTHVFGQAPYSGINITKEGIQIGVEGQTPKYADKTFQPEPQIGESQWYETEINHAAGRVLKKTTPMKPCYGSYAKPTNENGGQGILVKQQNGKLESQVEMQFFSTTEATAGNGDNLTPKVVLYSEDVDIETPDTHISYMPTIKEGNSRELMGQQSMPNRPNYIAFRDNFIGLMYYNSTGNMGVLAGQASQLNAVVDLQDRNTELSYQLLLDSIGDRTRYFSMWNQAVDSYDPDVRIIENHGTEDELPNYCFPLGGVINTETLTKVKPKTGQENGWEKDATEFSDKNEIRVGNNFAMEINLNANLWRNFLYSNIALYLPDKLKYSPSNVKISDNPNTYDYMNKRVVAPGLVDCYINLGARWSLDYMDNVNPFNHHRNAGLRYRSMLLGNGRYVPFHIQVPQKFFAIKNLLLLPGSYTYEWNFRKDVNMVLQSSLGNDLRVDGASIKFDSICLYATFFPMAHNTASTLEAMLRNDTNDQSFNDYLSAANMLYPIPANATNVPISIPSRNWAAFRGWAFTRLKTKETPSLGSGYDPYYTYSGSIPYLDGTFYLNHTFKKVAITFDSSVSWPGNDRLLTPNEFEIKRSVDGEGYNVAQCNMTKDWFLVQMLANYNIGYQGFYIPESYKDRMYSFFRNFQPMSRQVVDDTKYKDYQQVGILHQHNNSGFVGYLAPTMREGQAYPANFPYPLIGKTAVDSITQKKFLCDRTLWRIPFSSNFMSMGALTDLGQNLLYANSAHALDMTFEVDPMDEPTLLYVLFEVFDVVRVHRPHRGVIETVYLRTPFSAGNATT
Regarding B1, the Kd in assay [1] was 420 pM; in assay [2], 820 pM.
